Assay results from article PMC3094755, “The DNA-Binding Domain of Human PARP-1 Interacts with DNA Single-Strand Breaks as a Monomer through Its Second Zinc Finger”.

What was measured:
Conditions in all cases: protein: recombinant; label: fluorescein-dT at T8; single-chain dumbbell, 18 bp with central nick, two tetraloops
[1] = biological target: T1, PARP-1 F1+F2 (24-kDa DBD) (Homo sapiens, UniProt P09874 1-214); assay: fluorescence anisotropy; 0; 50 mM Tris-HCl pH 7.0, 150 uM ZnSO4, 4 mM DTT, 25 C; NaCl 0-200 mM (T2, as in cof; 10 nM DNA) or 25 mM (T3 mutants; 25 nM DNA)
PARP-1 F2 [2] = biological target: T2, PARP-1 F2 (Homo sapiens, UniProt P09874 103-214); assay: fluorescence anisotropy; 50; 50 mM Tris-HCl pH 7.0, 150 uM ZnSO4, 4 mM DTT, 25 C; NaCl 0-200 mM (T2, as in cof; 10 nM DNA) or 25 mM (T3 mutants; 25 nM DNA)
[3] = biological target: T1, PARP-1 F1+F2 (24-kDa DBD); assay: as above
[4] = biological target: T1, PARP-1 F1+F2 (24-kDa DBD); assay: fluorescence anisotropy; 200; 50 mM Tris-HCl pH 7.0, 150 uM ZnSO4, 4 mM DTT, 25 C; NaCl 0-200 mM (T2, as in cof; 10 nM DNA) or 25 mM (T3 mutants; 25 nM DNA)
PARP-1 F2 K119I = PARP-1 F2 K119I (Homo sapiens, UniProt P09874 103-214, K119I); assay: fluorescence anisotropy; 25 mM NaCl, one-site fit; 50 mM Tris-HCl pH 7.0, 150 uM ZnSO4, 4 mM DTT, 25 C; NaCl 0-200 mM (T2, as in cof; 10 nM DNA) or 25 mM (T3 mutants; 25 nM DNA)
PARP-1 F2 K141I/K142I = PARP-1 F2 K141I/K142I (Homo sapiens, UniProt P09874 103-214, K141I;K142I); assay: as above
PARP-1 F2 [5] = biological target: T2, PARP-1 F2; assay: as above
PARP-1 F2 K131I = PARP-1 F2 K131I (Homo sapiens, UniProt P09874 103-214, K131I); assay: as above
PARP-1 F2 R138I = PARP-1 F2 R138I (Homo sapiens, UniProt P09874 103-214, R138I); assay: as above
PARP-1 F2 G135D = PARP-1 F2 G135D (Homo sapiens, UniProt P09874 103-214, G135D); assay: as above
[6] = biological target: T1, PARP-1 F1+F2 (24-kDa DBD); assay: fluorescence anisotropy; 0 mM NaCl; tight site (KD1); FA: 50 mM Tris-HCl pH 7, 150 uM ZnSO4, 4 mM DTT, 0-200 mM NaCl, 25 C, 10 nM DNA (mutants 25 nM DNA, 25 mM NaCl); EMSA: 50 mM Tris-HCl pH 7.4, 150 uM ZnSO4, 4 mM DTT, 10% glycerol, RT incubation, gel at 4 C; NMR complexes: 50 mM Tris pH 7.0, 150 uM ZnSO4, 4 mM DTT, 37 C
[7] = biological target: T3, DNA ligase III alpha zinc finger (DL3) (UniProt P49916-3 1-117); assay: fluorescence anisotropy; 20 mM pyrophosphate pH 7.0; more similar to F2 than F1; FA: 50 mM Tris-HCl pH 7, 150 uM ZnSO4, 4 mM DTT, 0-200 mM NaCl, 25 C, 10 nM DNA (mutants 25 nM DNA, 25 mM NaCl); EMSA: 50 mM Tris-HCl pH 7.4, 150 uM ZnSO4, 4 mM DTT, 10% glycerol, RT incubation, gel at 4 C; NMR complexes: 50 mM Tris pH 7.0, 150 uM ZnSO4, 4 mM DTT, 37 C
T3 sequence: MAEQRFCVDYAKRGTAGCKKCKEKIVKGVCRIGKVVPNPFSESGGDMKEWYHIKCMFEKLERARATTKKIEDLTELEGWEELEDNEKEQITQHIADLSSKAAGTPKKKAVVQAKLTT

T1 sequence (P09874 1-214): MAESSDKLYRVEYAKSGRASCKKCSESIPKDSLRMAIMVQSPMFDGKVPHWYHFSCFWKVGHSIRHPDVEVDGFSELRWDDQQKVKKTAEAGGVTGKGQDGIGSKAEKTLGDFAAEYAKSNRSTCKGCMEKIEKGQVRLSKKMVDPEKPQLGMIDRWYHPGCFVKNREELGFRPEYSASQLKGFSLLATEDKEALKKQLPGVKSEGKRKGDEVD
T2 sequence (P09874 103-214): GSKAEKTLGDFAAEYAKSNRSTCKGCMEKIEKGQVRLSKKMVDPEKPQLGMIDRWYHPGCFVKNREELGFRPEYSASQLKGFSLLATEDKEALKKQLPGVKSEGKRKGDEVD
Chain of PARP-1 F2 R138I (P09874 103-214 R138I): as the sequence (P09874 103-214) above, with R36I counted along it
Chain of PARP-1 F2 K141I/K142I (P09874 103-214 K141I/K142I): as the sequence (P09874 103-214) above, with K39I, K40I counted along it
Chain of PARP-1 F2 K131I (P09874 103-214 K131I): as the sequence (P09874 103-214) above, with K29I counted along it
Chain of PARP-1 F2 G135D (P09874 103-214 G135D): as the sequence (P09874 103-214) above, with G33D counted along it
Chain of PARP-1 F2 K119I (P09874 103-214 K119I): as the sequence (P09874 103-214) above, with K17I counted along it

Binder: CGGTCGATCGTAAGATCGACCGGCGCTGGAGCTTGCTCCAGCGC (structured_DNA, 5'-phosphate) [44-nt nicked dumbbell, 5'-phosphate, fluorescein-dT]
- Kd [1]: 5.75 nM
- Kd (PARP-1 F2 [2]): 130 nM
- Kd [3]: 8.02 nM
- Kd [4]: 45.4 nM
- Kd (PARP-1 F2 K119I): 4550 nM
- Kd (PARP-1 F2 K141I/K142I): 3930 nM
- Kd (PARP-1 F2 [5]): 343 nM
- Kd (PARP-1 F2 K131I): 1570 nM
- Kd (PARP-1 F2 R138I): 19800 nM
- Kd (PARP-1 F2 G135D): 1710 nM
- Kd [6]: 5.7 nM
- binding result [7]: binds
